Where a chain is given by its changes, count along the chain named.

The text below walks through data of patent US11814435B2, “Therapeutic antibodies and their uses” (PFIZER INC., priority 2015, dated 2023).

T1: hBCMA (human BCMA) (Homo sapiens, UniProt Q02223)
T1 sequence (Q02223 1-184): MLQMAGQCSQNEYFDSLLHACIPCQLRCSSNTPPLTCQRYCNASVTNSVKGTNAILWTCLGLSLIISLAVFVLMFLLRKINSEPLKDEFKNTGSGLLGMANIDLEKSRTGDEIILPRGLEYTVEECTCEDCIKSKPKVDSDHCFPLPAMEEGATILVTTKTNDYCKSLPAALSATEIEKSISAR

B1: A02_Rd4_6 nM_C26: anti-BCMA antibody (antibody, V domains shown)
VH: EVQLLESGGGLVQPGGSLRLSCAASGFTFSSYAMNWVRQAPGKGLEWVSAISDSGGSTYYADSVKGRFTISRDNSKNTLYLQMNSLRAEDTAVYYCARYWPMSLWGQGTLVTVSS
VL: EIVLTQSPGTLSLSPGERATLSCRASQSVSSLYLAWYQQKPGQAPRLLMYDASIRATGIPDRFSGSGSGTDFTLTISRLEPEDFAVYYCQQYQVWPLTFGQGTKVEIK
B2: A02_Rd4_6 nM_C10: anti-BCMA antibody (antibody, V domains shown)
VH: B1 VH with T58C, Y59W, S103T, L104P
VL: B1 VL with S30E, S31M, L32S, Q93A, V94H
B3: A02_Rd4_6 nM_C08: anti-BCMA antibody (antibody, V domains shown)
VH: B1 VH with S52L, L104P
VL: B1 VL with S31F, Q93G, V94S
B4: A02_Rd4_6 nM_C25: anti-BCMA antibody (antibody, V domains shown)
VH: B1 VH with T58R, Y59W, S103T, L104P
VL: B1 VL with L32S, Q93L, V94D
B5: C01_Rd4_6 nM_C26: anti-BCMA antibody (antibody, V domains shown)
VH: B1 VH with A33P, N35S, S52G, D53G, T58L, Y59P, S103D, L104S
VL: B1 VL with S31A, M49I, I54S, T57P, Q93S, V94A
B6: C01_Rd4_6 nM_C24: anti-BCMA antibody (antibody, V domains shown)
VH: B1 VH with A33P, N35S, S52G, D53G, T58L, Y59P, S103D, L104S
VL: B1 VL with S31P, L32E, M49I, I54S, T57P, Q93S
B7: A02_Rd4_6 nM_C05: anti-BCMA antibody (antibody, V domains shown)
VH: B1 VH with S52F, D53A, S103T, L104P
VL: B1 VL with L32S, V94R
B8: A02_Rd4_6 nM_C23: anti-BCMA antibody (antibody, V domains shown)
VH: B1 VH with T58G, Y59W
VL: B1 VL with S31V, L32E, Q93A, V94R
B9: A02_Rd4_0.6 nM_C10: anti-BCMA antibody (antibody, V domains shown)
VH: B1 VH with D53G, S54W, T58L, Y59P, S103D, L104S
VL: B1 VL with S31A, L32Q, V94R
B10: P5C1_VHVL: anti-BCMA antibody (antibody, V domains shown)
VH: B1 VH with A33P, N35S, S52G, D53G, S103D, L104S
VL: B1 VL with L32T, M49I, I54S, T57P, Q93S, V94T, W95S
B11: A02_Rd4_0.6 nM_C18: anti-BCMA antibody (antibody, V domains shown)
VH: B1 VH with I51V, S52L
VL: B1 VL with S31E, Q93F, V94G
B12: A02_Rd4_6 nM_C04: anti-BCMA antibody (antibody, V domains shown)
VH: B1 VH with S52M, D53S, S57P, T58L, S103A
VL: B1 VL with S31A
B13: A02_Rd4_6 nM_C19: anti-BCMA antibody (antibody, V domains shown)
VH: B1 VH with T58R, Y59W, L104D
VL: B1 VL with S31V, Q93L, V94A
B14: A02_Rd4_0.6 nM_C03: anti-BCMA antibody (antibody, V domains shown)
VH: B1 VH with T58K, Y59W
VL: B1 VL with L32S, Q93F, V94T
B15: A02_Rd4_0.6 nM_C13: anti-BCMA antibody (antibody, V domains shown)
VH: B1 VH with S57Y, T58R
VL: B1 VL with L32S, L34W, Q93E, V94S
B16: A02_Rd4_6 nM_C22: anti-BCMA antibody (antibody, V domains shown)
VH: B1 VH with I51V, S52L, S103T, L104P
VL: B1 VL with L32S
B17: A02_Rd4_0.6 nM_C26: anti-BCMA antibody (antibody, V domains shown)
VH: B1 VH with S52L, D53M
VL: B1 VL with R24G, A25P, L32S, V94S
B18: A02_Rd4_6 nM_C07: anti-BCMA antibody (antibody, V domains shown)
VH: B1 VH with S52G, D53G, T58L, Y59P, S103D, L104S
VL: B1 VL with S31P, L32Y, Q93E, V94R
B19: L3.PY/L3.KF/H2.LT: anti-BCMA antibody (antibody, V domains shown)
VH: EVQLLESGGGLVQPGGSLRLSCAASGFTFGSYAMTWVRQAPGKGLEWVSAISLTGGNTFYADSVKGRFTISRDNSKNTLYLQMNSLRAEDTAVYYCARVSPIASGMDYWGQGTLVTVSS
VL: EIVLTQSPGTLSLSPGERATLSCRASQSVSSSYLAWYQQKPGQAPRLLIYGASSRATGIPDRFSGSGSGTDFTLTISRLEPEDFAVYYCKFYPYPPSFTFGQGTKVEIK
B20: L3.PY/L3.KF/H2.QL: anti-BCMA antibody (antibody, V domains shown)
VH: B19 VH with L53G, T54S, S63Q, V64L
VL: B19 VL

One test relates to Cyno BCMA. As to the kind of experiment: Kinetics and affinity of cyno BCMA/human IgG interactions by SPR (Bio-Rad Proteon XPR36). Type of test: binding, cynomolgus. To be noted: 37° C. A general note: Surface plasmon resonance follows binding to a sensor surface in real time, without labels.
On to B1, for which the “ka Cyno” value came out at 2.21e+06 M⁻¹ s⁻¹ and the “kd Cyno” value is 0.000448 s⁻¹.

Take B2: the “ka Cyno” value was found to be 1.9e+06 M⁻¹ s⁻¹ and the “kd Cyno” value is 0.000898 s⁻¹.

In the case of B3, the Kd was 5.07 nM, the “ka Cyno” value is 2.23e+06 M⁻¹ s⁻¹ and the “kd Cyno” value was determined as 0.0113 s⁻¹.

In the case of B4, the “ka Cyno” value worked out at 1.5e+06 M⁻¹ s⁻¹ and the “kd Cyno” value was determined as 0.00033 s⁻¹.

With B5, the “ka Cyno” value amounted to 4.75e+06 M⁻¹ s⁻¹ and the “kd Cyno” value was found to be 0.00199 s⁻¹.

As for B6, the “ka Cyno” value turned out to be 3.17e+06 M⁻¹ s⁻¹ and the “kd Cyno” value worked out at 0.000891 s⁻¹.

Turning to B7, the “ka Cyno” value worked out at 1.36e+06 M⁻¹ s⁻¹ and the “kd Cyno” value amounted to 0.00129 s⁻¹.

Take B8: the “ka Cyno” value is 2.63e+06 M⁻¹ s⁻¹ and the “kd Cyno” value came to 0.000414 s⁻¹.

Turning to B9, the “ka Cyno” value is 883000 M⁻¹ s⁻¹ and the “kd Cyno” value was 0.00163 s⁻¹.

As to B10, the “ka Cyno” value came out at 3.53e+06 M⁻¹ s⁻¹ and the “kd Cyno” value came out at 0.0538 s⁻¹.

B11: the Kd amounted to 0.197 nM, the “ka Cyno” value came to 3.24e+06 M⁻¹ s⁻¹ and the “kd Cyno” value was 0.000639 s⁻¹.

With B12, binding was put at a Kd of 0.381 nM, the “ka Cyno” value was determined as 2.18e+06 M⁻¹ s⁻¹ and the “kd Cyno” value worked out at 0.000831 s⁻¹.

Take B13: binding was characterised by a dissociation constant (Kd) of 0.26 nM, the “ka Cyno” value turned out to be 2.54e+06 M⁻¹ s⁻¹ and the “kd Cyno” value amounted to 0.000661 s⁻¹.

Turning to B14, the “ka Cyno” value is 2.12e+06 M⁻¹ s⁻¹ and the “kd Cyno” value turned out to be 0.000426 s⁻¹.

As to B15, the “ka Cyno” value came out at 2.29e+06 M⁻¹ s⁻¹ and the “kd Cyno” value turned out to be 0.00128 s⁻¹.

For the molecule B16, the “ka Cyno” value turned out to be 1.84e+06 M⁻¹ s⁻¹ and the “kd Cyno” value came out at 0.000324 s⁻¹.

Take B17: the “ka Cyno” value was 2.71e+06 M⁻¹ s⁻¹ and the “kd Cyno” value was found to be 0.00256 s⁻¹.

B18: the “ka Cyno” value stood at 691000 M⁻¹ s⁻¹ and the “kd Cyno” value worked out at 0.000786 s⁻¹.

In a further test the target is T1, hBCMA (human BCMA). Put plainly: Kinetics and affinity of hBCMA/human IgG interactions by SPR (Bio-Rad Proteon XPR36). Type of test: binding. The settings on record: huBCMA, 37° C. In outline: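 Kinetics and affinity came from double-referenced sensorgrams fit to a 1:1 Langmuir model with mass transport. The fits used a five-step kinetic titration of BCMA (0.08-50 nM, 2 min each, then 2 h dissociation) over immobilized IgGs, run at 37° C. or 25° C. in HBS-T+ pH 7.4 containing 1 mg/mL BSA.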
For B19, the “ka (1/Ms) huBCMA @ 37° C.” value was 2.75e+06 M⁻¹ s⁻¹ and the “kd (1/s) huBCMA @37° C.” value amounted to 0.00191 s⁻¹.

On to B20, for which the “ka (1/Ms) huBCMA @ 37° C.” value was 2.07e+06 M⁻¹ s⁻¹ and the “kd (1/s) huBCMA @37° C.” value was 0.00125 s⁻¹.

The test is the same for the next values; noted with them: human BCMA, 37° C.
Regarding B1, the “ka Human” value came to 4.26e+06 M⁻¹ s⁻¹ and the “kd Human” value is 0.000139 s⁻¹.

As to B2, the “ka Human” value was 4.51e+06 M⁻¹ s⁻¹ and the “kd Human” value came out at 0.000315 s⁻¹.

B3: the Kd came to 0.188 nM, the “ka Human” value was 3.92e+06 M⁻¹ s⁻¹ and the “kd Human” value stood at 0.000738 s⁻¹.

Regarding B4, the “ka Human” value was determined as 2.75e+06 M⁻¹ s⁻¹ and the “kd Human” value was 0.00018 s⁻¹.

B5: the “ka Human” value worked out at 1.5e+07 M⁻¹ s⁻¹ and the “kd Human” value amounted to 0.00136 s⁻¹.

Turning to B6, the “ka Human” value was 7.47e+06 M⁻¹ s⁻¹ and the “kd Human” value came to 0.00348 s⁻¹.

Turning to B7, the “ka Human” value was found to be 3.1e+06 M⁻¹ s⁻¹ and the “kd Human” value is 0.000308 s⁻¹.

With B8, the “ka Human” value is 1.22e+07 M⁻¹ s⁻¹ and the “kd Human” value is 0.000255 s⁻¹.

Take B9: the “ka Human” value was determined as 2.3e+06 M⁻¹ s⁻¹ and the “kd Human” value is 0.000296 s⁻¹.

Consider B10, for which the “ka Human” value was determined as 1.16e+07 M⁻¹ s⁻¹ and the “kd Human” value came to 0.0692 s⁻¹.

Take B11: the affinity, expressed as Kd, was 0.048 nM; the “ka Human” value is 4.73e+06 M⁻¹ s⁻¹; the “kd Human” value came to 0.000229 s⁻¹.

Regarding B12, the dissociation constant Kd was determined as 0.135 nM, the “ka Human” value stood at 4.47e+06 M⁻¹ s⁻¹ and the “kd Human” value turned out to be 0.000603 s⁻¹.

As for B13, the Kd came out at 0.049 nM, the “ka Human” value is 3e+06 M⁻¹ s⁻¹ and the “kd Human” value was found to be 0.000148 s⁻¹.

B14: the “ka Human” value worked out at 4.27e+06 M⁻¹ s⁻¹ and the “kd Human” value was found to be 0.000182 s⁻¹.

With B15, the “ka Human” value amounted to 8.53e+06 M⁻¹ s⁻¹ and the “kd Human” value was 0.000566 s⁻¹.

Turning to B16, the “ka Human” value is 3.38e+06 M⁻¹ s⁻¹ and the “kd Human” value is 0.000182 s⁻¹.

For B17, the “ka Human” value was 7.26e+06 M⁻¹ s⁻¹ and the “kd Human” value was 0.000443 s⁻¹.

For the molecule B18, the “ka Human” value came out at 1.48e+06 M⁻¹ s⁻¹ and the “kd Human” value worked out at 0.000189 s⁻¹.

A further test relates to cyBCMA. Put plainly: Kinetics and affinity of cyBCMA/human IgG interactions by SPR (Bio-Rad Proteon XPR36). Format: binding, cynomolgus. The settings on record: 37° C.
For the molecule B19, the “ka (1/Ms) cyBCMA @ 37° C.” value came out at 1.91e+06 M⁻¹ s⁻¹ and the “kd (1/s) cyBCMA @37° C.” value turned out to be 0.00413 s⁻¹.

For the molecule B20, the “ka (1/Ms) cyBCMA @ 37° C.” value was determined as 1.42e+06 M⁻¹ s⁻¹ and the “kd (1/s) cyBCMA @37° C.” value is 0.0031 s⁻¹.

For orientation: Kd means the free concentration of one partner at which half of the binding sites on the other are occupied at equilibrium, for simple one-to-one binding. A higher Kd goes with weaker binding.
